Assay results from patent US20230333108, “APTAMER-BASED POINT-OF-CARE ASSAY DEVICES AND METHODS” (The Regents of the University of California, published 2023).

B1: N-aptamer (anti-N protein aptamer) (ssDNA)
DNA: TTTTTTGCAATGGTACGGTACTTCCGGATGCGGAAACTGGCTAATTGGTGAGGCTGGGGCGGTCGTGCAGCAAAAGTGCACGCTACTTTGCTAA
B2: S-aptamer (anti-S protein aptamer) (ssDNA)
DNA: TTTTTTCAGCACCGACCTTGTGCTTTGGGAGTGCTGGTCCAAGGGCGTTAATGGACA

How the values were obtained:
[1] = target: SARS-CoV-2 nucleocapsid (N) protein (SARS-CoV-2, UniProt P0DTC9 P0DTC9:1-419); test: competition; settings: tags: Sino Biological; label: 5'-biotin
[2] = target: SARS-CoV-2 spike (S) protein (SARS-CoV-2, UniProt P0DTC2 P0DTC2:14-1213); test: competition; settings: tags: Sino Biological; label: 5'-biotin

Row | Binder | binding result [1] | binding result [2]
1 | B1 | binds | –
2 | B2 | – | binds
